Test results reported in paper PMC4227782.

Molecular target: T1, MBNL1 (2-260) (UniProt Q9NR56)
T1 sequence: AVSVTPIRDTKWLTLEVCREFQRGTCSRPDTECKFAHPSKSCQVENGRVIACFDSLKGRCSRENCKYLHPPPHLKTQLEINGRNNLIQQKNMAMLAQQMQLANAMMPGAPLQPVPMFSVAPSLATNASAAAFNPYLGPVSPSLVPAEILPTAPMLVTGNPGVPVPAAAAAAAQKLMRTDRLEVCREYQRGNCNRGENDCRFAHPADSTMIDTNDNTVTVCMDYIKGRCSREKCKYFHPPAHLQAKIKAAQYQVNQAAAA
Test: EMSA
Settings: 5 mM Mg2+, 0.1 mg/ml heparin, 175 mM NaCl, 20 mM Tris pH 7.5, 1 mM BME, 10% glycerol, 5 mM MgCl2, 0.1 mg/ml heparin, 2 mg/ml BSA, 0.02% xylene cyanol, 0.05% bromophenol blue, 20 min at room …

Work on CUGCUGCUGCUG [1-2'Ome(CUG)4] yielded a Kd (1 2'-O-methyl, position only in Fig 1B) of 650 nM.
CUGCUGCUGCUG [1Ψ(CUG)4] gave a Kd (1 pseudouridine replacing U, position only in Fig 1B) of 1000 nM.
In the case of CUGCUGCUGCUG [2-2'Ome(CUG)4], the Kd (2 2'-O-methyl, positions only in Fig 1B) is reported as 890 nM.
Sequence CUGCUGCUGCUG [2Ψ(CUG)4] has a Kd (2 pseudouridines replacing U, positions only in Fig 1B) of 6000 nM.
With CUGCUGCUGCUG [4-2'Ome(CUG)4] the Kd (4 2'-O-methyl, positions only in Fig 1B) was 1000 nM.
In the case of CUGCUGCUGCUG [4Ψ(CUG)4], the Kd (Kd immeasurable, 4 pseudouridines replacing U) is reported as > 5000 nM.
In the case of CUGCUGCUGCUG [(CUG)4], the Kd is reported as 300 nM.
